Source: the DeepSol protein solubility set

assay: soluble on expression in E. coli; label from the status in PepcDB or PDB records

Soluble on expression in E. coli, not soluble:
MGSDKIHHHHHHMLPKYEIIKRDIIEKIESGEFSTGEKVYSEGDLKRKYNVSNTTVVKALNDLVNEGYLIRRQGEGTFVRKNLKHRKVFFSEKLSMSNNEKQKSVEETITLVSEEFTDKEIAQILGDKSGSKALLKLTQIALTNDFPWKIQNRYLFADKLRDDSVKRLIEGASLSDELGLQGNMANLPMTMEVSTILLTKDSDELEPLRIIRKSFGEEDSFSLFNIKRLIRGNDGVPIEYSQSFILSDFYQIEIISE
MGSDKIHHHHHHMLPLVKLIRGQDNTIVEADLVELWQKHVDDYANKWKEQLKLHGQSDKFWDWEFKLEFIINRQANREGFAIEYEDETQGLMLIETQMHGSRLVEGKRLVYIDGIATAPWNRAYIQRPPKLKGVGTAFLAFARTRSLELGYEGRVGLHSLPGVEEFYDNQGMIDVGEDEDYDDLVYFEYGVFRSPV
MGSDKIHHHHHHMLPNRLLANRAYSTAINRFRVVEVGARDGLQAEKKFVPTEIKVELIDRLSECGFQTVETTSFVSPKWVPQLADHNEIVKKHRRFEGVSYPVLVPNAAGLKNALATGVVEEIAVFGAASDAFSLKNVNSNVEDSLKKLMEVTKIALENNIRVRGYVSVVVGCPYQGAVQPEMVARVAEKLLESGCYEVSLGDTIGVGTVKTVSKMLDTVLKSVPAEKLAVHFHDTYGQALANVLISIEKGIRSADSSIAGLGGCPYAKGATGNLATEDLLYFLKGNGFETGVNLDKVVETAKWFNEAAGYDKWSRVGAAMMAKKSKSCC
MGSDKIHHHHHHMLPQSFSYKVIRHNMITVAHLINNIVQSGPVIVMRDIIRHMDRDKFHPIVICLRHEEKEDPIVKELRAIDVKCIYLNYSLLSLELQTGRIARKVLSVLRNEKAHILHSHGYHPDLIASHLSRNITSLSTLHNISKDDFTFLKGNLLGSYMNFRYLRSLSKIGHYVAISRAVADYYASHVNKAKERIRIIHNGVDLSFFQIPDEDHQKQLRHRLGLPVSGKIFLVVGRLFSRKDPLIIIRAFKFLLESQKLSGDFYLFFLGDGPLSDACQKEIGDKTHNIRLLGFQKNVHEYMMAADYAITASHSEGFGLNYLEATACGKPVVATDLPPFREICGTGFQDNELFFSVGNQKELEDCILKSLGHTFNPQKVSDIRHHFSAETMSVQYQNYYTELSAPLK
MGSDKIHHHHHHMLQFQPPGFGHKLIHTSLGAMVYYTQTNTPWAFADTEDLPPLLFLHNFGGGASAYEWSKVYPAFASNYHILAPDLIGWGESAHPVRDYKIRDYLSTIAEFIIETCRQPVTVVASSLTAAFAIRLAIVQPNLFKALFLVSPSGFDDFGQGAGRRLPLSVINTPLLDNFIYMLGAENEIAVRNFLQSFLFAKSERVSQEIVDAYLTSAQQPNAKFSALAFLRGDLYFDLSLYIQQLTIPTVMFWGEKAQFTNIKLGQRLANLNQRAIQDFYAIADAGILPHLEIPEVVIGLLQRYLR
MGSDKIHHHHHHMLQNRERTYSLPQPFYSDDRLFEIDMQEIFHKEWLIAGMTCEIPTKGNFLTLQIGKNPILVVRGPDGAVNAFHNVCRHRGSRLCTAEKGKVAKLVCHYHQWTYELDGRLLYAGTEMGDDFDMKQFGLKPVHVKTAGGYIFISLAENPPAIDEFLATLKHYMEPYDMENTKVAVQTTLMEKANWKLVLENNRECYHCGGAHPELLKTLLEWDDVTDPRADQAFKDHVAASAAAWDAEKIPYAHASFGLRNRIVRMPLLKGTVSMTMDGKVGCKKLMGRIQNPELGSMRILHLPHSWNHCMGDHIIVFTVWPISAQETMVSTKWIVHKDAVEGVDYDVARMRQVWDATNDQDRRLAEENQRGINSTAYQPGPYSKTYEFGVVNFIDWYSARMLENLGAEPAPYLKGVAVNHE
MGSDKIHHHHHHMLSGSTQLMPSTVGLASAHLQYSASFFPTTAVYSLLFPDKSIIIGTVALGYAQTRPQDLPVTHILTKGNRTFKLSIASTPEQLEKGLKFRSSLNGDSGMLFNLGGEIYNVPFWMYKVNFPLDIFYLKDNVVTTAVYNAKPCYKNPCPIYKGKVANQVLELATGTANIKVGDRLNIQPLSSAKE
MGSDKIHHHHHHMLSMKNIVGKPQTIKKVNEDLIKNIIKNEGPITKPEISSITELSLATVNKIVEQLALKNEVKVSGLSESTGGRRAQLFEINANLEHIIALYYYRNCCIGVVANLLGEIIYQEEFNIRMDTYENVNQDTFFVIDTLIKKEKGNNIRAIGIGVPGVVKKGVVKNIPTIKSWEGINLENLIKSKYNTKVFIENDTNITTIGIYQKQYKDKYKNMALMYLEDGIGSGIVINGELYLGSTNFAGELSYLNIEFGKYNSNNLNLEDYIMSLRKRYLESKDNKFKKEILSIISNFIRTLVCVLNPQAMIIQCSILTKSDMEFIEKDVSNNVGEENFPKLIKVESLREGSINGVISMCLKETDYQYSLSNKKGGY
MGSDKIHHHHHHMLTGVEVRHFKSWRASEWIACAPITMFFGSNSSGKTSLLQLLLLLKQTTESSDRQQVLNLGDTHSPVDAGTFPDLLHRHEQTQSLFWRIAWQLPPDLTIALPGRKNGDHLPARELAFQARIGWHQHSDSTPNLQAQASHGRAVVEEMAYQLAGYTLGMRLRDRVKQEYELYSDPAGLFSRPSRKSPRLPSPVKCYGFPDEVQKYYKHVSFLTDLEFALEQLCRRMTYLGPLREYPRRQYTWSGTPPTGVGYRGERVIEALLASRLSSDVASGTDSDQPSALETRVAEWLKTMELIADFAVRAVAPGASLFQVWVRRAQQAPEVLMTDVGFGISQMLPVITLCYYVPKGSIVILEHPEIHLHPRAQADLADVLIDAVKTRGVQIIVESHSEHLLRRLQRRIAEDVLPSDQAALYVCTTDAEGVSHIQRLHLDPYGNITNWPKDFFGDEMGDLLAMSEAAMKRQLGQV
MGSDKIHHHHHHMLTSSWIKQLPLTAITQVTPVGGGDVNQAYRIDTATKPYFLLVQPGYPADFYAGEIAGLKAFDEAQILAPRVIANGQIEGDGFLLLSFLTSGNGSQRDLGRLVAHLHQHHEPNGRFGFDYPYAGTSVSFTNTWTDSWADLFIHQRLDKLAAHLLKKELWQADDEATFQQVRTIISKTLAHHHSDASLLHGDLWGGNYMFTADGQPALIDPAAVYGDRELDIGVTTVFGGFTQDFYTGYQEVYPLDAGYHFRLDFYRLYYLMVHLDKFGMGYAGSVAAVMNQILDHGLTE
MGSDKIHHHHHHMLTTVKEKIEALNSEVSYRVKLWQYAPNLPKVESRDRLIVDTLKSEGVYITTLQELGLPSTAQLLKASHTLLPGMGQGSYAESAQNPPEIYTVTHIPDFYNWGSESRLLNILENYIGLPVAYHGVQIRKDFVNANQFSTMLWHRDSEDRRIVKIIIYLSDVEEKHGPFEYVPASFTSIDSLNFYRLYYKIHKSGINDEALNKIVPKSAWKSCTGPAGSVIIADTQRLLHHGTVRTEERSTLFYAYTANPAKRPGLCTQYWDDTFPKPNYS
MGSDKIHHHHHHMLVVPAIDLFRGKVARMIKGRKENTIFYEKDPVELVEKLIEEGFTLIHVVDLSNAIENSGENLPVLEKLSEFAEHIQIGGGIRSLDYAEKLRKLGYRRQIVSSKVLEDPSFLKSLREIDVEPVFSLDTRGGRVAFKGWLAEEEIDPVSLLKRLKEYGLEEIVHTEIEKDGTLQEHDFSLTKKIAIEAEVKVLAAGGISSENSLKTAQKVHTETNGLLKGVIVGRAFLEGILTVEVMKRYAR
MGSDKIHHHHHHMMDYFSMTSHQDTKPSAQTSQWPVPTDSVRYVIPEPIVRQLAHHPLTRELYPLAFGHYRRAAGHHMHREHHRDNLLIYCTDGKAFLNVAGEPYTVTAGDLLLLPAGVSHRYTADPDNPWTIHWVHYTGPLAEDFGQYMGFDDSTRIRHLGRQPRLLVDFNGLLSVRQTGFRARGLIHASNRLRQLLAAVPINADETSQARQAELDSLHSFMREHLEERLTLNQLAELSGLSPAHFATRYREQTGTSPIQHFLHLKVERACELLDTTSQSFADISRQLGYDDAYYFSRLFKKVMGKSPTDYRHTARH
MGSDKIHHHHHHMMGKAALMDAIAGTNRGLLATEAQKQAILAAIANLEDFNPTPRPVEAGNLLDGNWRLLYTTSKALLNLDRLPFCKLGQIYQCIRVETTSVYNIAEIYGLPYLEGLVSVAAKFEPVSGRRVQVKFERSIIGLQRLIEYNSPVTFIQQIEAGKKFAGIDFAIKSDKQQGWLDITYIDNDLRIGRGNEGSVFILSKT
MGSDKIHHHHHHMMKIPKKIHQIYTKGIHDLPEEILVSVGKLKDLNPGWEYFFYDEKSIIGYIHKHYGKEMLNIYLSINPKYGVAKADLFRYLLIYIEGGVYLDIKSSCSIPLDQVIKDDCEILLCSWDNKECGCDRNMGIHKELGFLKCGEYQQWNIISASGSPYIKSAIDEVIHRLKTYKPWIYGVGMKGVLNTTGPVPFSVGIERINKTEFFHHEENYRNIGLKYRNVTEETIRKLNKNHYSKLKDSIVTLEGKDKLYYKLWLLFFYPLQRLKKNIINESKFVIRKMKRISRKTSQ
MGSDKIHHHHHHMMRVEHLAYQFSRNGQPFFKDVSFQLKSPGVNFLIGQNGAGKTTLADIITGLRPAQGELDLPKAAIYLNQQLPLLSSIRVRDVAQLVLGIEHGRLRLTTEQLQQLIDTQAYQFLAPLWDQHYGQLSGGQRKLVQLLLFLQVDRELIVLDEPTAAVDRENVQLLFQVMQAHPERTYLMITHDVRDLHAFTDYQVLWLNDRQVTTLSKRTFEAASAQADFVALFKTQ
MGSDKIHHHHHHMMSDEKNLGVSQKLVSPSRSTSSCSSKQGSRQDSWEVVEGLRGEMNYTQEPPVQKGFLLKKRKWPLKGWHKRFFYLDKGILKYAKSQTDIEREKLHGCIDVGLSVMSVKKSSKCIDLDTEEHIYHLKVKSEEVFDEWVSKLRHHRMYRQNEIAMFPHEVNHFFSGSTITDSSSGVFDSISSRKRSSISKQNLFQTGSNVSFSCGGETRVPLWLQSSEDMEKCSKDLAHCHAYLVEMSQLLQSMDVLHRTYSAPAINAIQGGSFESPKKEKRSHRRWRSRAIGKDAKGTLQVPKPFSGPVRLHSSNPNLSTLDFGEEKNYSDGSETSSEFSKMQEDLCHIAHKVYFTLRSAFNIMSAEREKLKQLMEQDASSSPSAQVIGLKNALSSALAQNTDLKERLRRIHAESLLLDSPAVAKSGDNLAEENSRDENRALVHQLSNESRLSITDSLSEFFDAQEVLLSPSSSENEISDDDSYVSDISDNLSLDNLSNDLDNERQTLGPVLDSGREAKSRRRTCLPAPCPSSSNISLWNILRNNIGKDLSKVAMPVELNEPLNTLQRLCEELEYSELLDKAAQIPSPLERMVYVAAFAISAYASSYYRAGSKPFNPVLGETYECIREDKGFQFFSEQVSHHPPISACHAESRNFVFWQDVRWKNKFWGKSMEIVPIGTTHVTLPVFGDHFEWNKVTSCIHNILSGQRWIEHYGEIVIKNLHDDSCYCKVNFIKAKYWSTNAHEIEGTVFDRSGKAVHRLFGKWHESIYCGGGSSSACVWRANPMPKGYEQYYSFTQFALELNEMDPSSKSLLPPTDTRFRPDQRFLEEGNLEEAEIQKQRIEQLQRERRRVLEENHVEHQPRFFRKSDDDSWVSNGTYLELRKDLGFSKLDHPVLW
MGSDKIHHHHHHMMTQLSAPTLTKDPLTSQDRQIIATIVNQSDYSKECKPEDVVTIWINSDDIVWVKMTHGYARYHKQSFKRAVAEVKASLSAPVERNHKEEKELKQASEKIGLLGDCDWLSLSVQYHSDKVTGHAACYISHKARILTPLAEWDFTIPKWNMPAAICPDCDGHGCGNCGYRGTRAEDLCTPVDGYRLTYVGKTDIQTAHNVYLDGVFLGILFKVRNPDEIWENDPKTYYWQGSNGMKYWSLKEAVESFTQDVVTNKVPQVRQELAVA
